B1: BolA-like protein 3 (Homo sapiens), Q53S33 (parent)
chain: MAAWSPAAAAPLLRGIRGLPLHHRMFATQTEGELRVTQILKEKFPRATAIKVTDISGGCGAMYEIKIESEEFKEKRTVQQHQMVNQALKEEIKEMHGLRIFTSVPKR
partner: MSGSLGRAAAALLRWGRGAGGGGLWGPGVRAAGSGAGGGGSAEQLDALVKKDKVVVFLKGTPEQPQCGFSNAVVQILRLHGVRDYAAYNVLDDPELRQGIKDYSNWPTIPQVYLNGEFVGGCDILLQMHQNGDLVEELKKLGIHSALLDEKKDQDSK

Variants of: B1
Settings: with glrx5_human GLRX5, Q86SX6

| Variant | effect of a mutation on the interaction |
| --- | --- |
| C59Y | with no effect |

— IntAct's records for PubMed 34063696
